Blank lines part the entries; values can stand above or below the substance they belong to. Ends that are not written are not given here.
Tests used:
thrombin receptor = target: T1, thrombin receptor (Homo sapiens, UniProt P25116); assay: flow cytometry of thrombin receptor epitopes (SPAN12, ATAP138) on α-thrombin activated platelets; type: cell-based; conditions: peptide 1 nM (so in the source), α-thrombin 1 nM
T1 construct: endogenous in cells; host or cells: washed platelets from fresh blood
T1 sequence (P25116 22-425): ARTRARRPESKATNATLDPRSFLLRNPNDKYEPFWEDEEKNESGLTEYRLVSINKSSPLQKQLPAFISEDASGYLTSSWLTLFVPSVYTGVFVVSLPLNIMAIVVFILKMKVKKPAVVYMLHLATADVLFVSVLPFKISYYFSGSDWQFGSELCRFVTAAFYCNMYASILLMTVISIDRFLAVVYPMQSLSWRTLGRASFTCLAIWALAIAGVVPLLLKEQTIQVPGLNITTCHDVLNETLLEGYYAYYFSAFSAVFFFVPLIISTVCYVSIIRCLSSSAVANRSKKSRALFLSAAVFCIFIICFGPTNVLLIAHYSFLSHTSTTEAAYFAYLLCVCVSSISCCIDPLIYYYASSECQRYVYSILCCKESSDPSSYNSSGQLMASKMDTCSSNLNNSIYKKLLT
Protocol: Flow cytometry studies were performed to determine whether BK analogs prevent α-thrombin from eliminating an epitope on the thrombin receptor which is lost following α-thrombin cleavage- of the receptor. SPAN12 is an antibody to the thrombin receptor on platelets, which is specific for such an epitope. Studies were also performed to determine the effect of BK analogs on an epitope recognized by monoclonal antibody ATAP 138. The antibody is directed to an epitope on the thrombin receptor which is preserved after α-thrombin cleaves the receptor (FIGS. 7A-7D).
Monoclonal antibody SPAN12 was reared to the 12 amino acids, Asn-Ala-Thr-Leu-Asp-Pro-Arg-Ser-Phe-Leu-Leu-Arg (SEQ ID NO:2), that bridge the α-thrombin cleavage site on the thrombin receptor by the methods of Molinot et al., J. Biol. Chem. 270:ln Press, 1995. […]
Mouse IgG and an antibody to the epitope CD62 were used as controls. […] The fluorescence of bound FITC-anti-IgG to platelets was monitored on an Epics-C flow cytometer (Coulter Electronics, Hialeah, Fla.). Light scatter and fluorescence channels were set at logarithmic gain. […] Green fluorescence was observed through a 525 nm band pass filter. The relative fluorescence intensity of at least 15,000 platelets was analyzed in each sample. […]

Human platelets in PRP = assay: γ-thrombin-induced aggregation of human platelets in PRP in vitro; type: cell-based; conditions: 20 nM γ-thrombin
Protocol: Platelet aggregation studies on the PRP were conducted on a 4-channel aggregometer (BioData-PAP-4, Bio Data Corp., Hatboro, Pa.). The degree of platelet aggregation was determined by measuring the increase in light transmission through a stirred suspension of PRP maintained at 37° C. Platelet aggregation was induced in the PRP sample by addition of 20 μM ADP and γ-thrombin according to the method of Harfenist et al., Thromb. Haemost. 53, 183 (1985). […] Like human platelets, rabbit platelets display a variable response to γ-thrombin. Each rabbit's platelets were evaluated before BK analog infusion for their threshold response to γ-thrombin. The rabbit platelets used in this experiment were responsive to 10 nM to 40 nM γ-thrombin. Simultaneous γ-thrombin-induced platelet aggregation studies were performed with 10, 20, and 40 nM γ-thrombin and 20 μM ADP.
The protocol for the human platelet study was identical to that for the functional study with white rabbits described above in Section III.A, with the following differences.
Blood samples were obtained from normal human volunteers. Platelet counts were measured with a Coulter counter, Model 2F (Coulter, Hialeah, Fla.,) and adjusted to a platelet count of 200,000 platelets/μl. Each individual's platelets at baseline were measured for their threshold response to γ-thrombin. Typical threshold levels were between 10 nM to 40 nM.

α-thrombin = α-thrombin (Homo sapiens, UniProt P00734); assay: α-thrombin cleavage of thrombin receptor peptide NAT12 (HPLC); type: biochemical; conditions: peptide 1 mM
Protocol: A further study was performed to determine whether BK analogs prevent α-thrombin from cleaving the thrombin receptor reported by Vu et al., Cell 64, 1057 (1991). A peptide, NAT12 (SEQ ID NO:2), which spans amino acids […] of the α-thrombin cleavage site on the thrombin receptor, was used to determine whether the BK analogs described herein blocked α-thrombin cleavage of the cloned receptor.
The cleavage study was performed according to the method of Molino et al., J. Biol. Chem. 270,11168(1995),inwhichNAT12(SEQ ID NO:2) was dissolved in a solution of 0.01 M NaH2 PO4 and 0.15 M NaCl, pH 7.4. […] Following incubation, each mixture was separated by applying the mixture to a Vyadec C-18 HPLC column in 0.1% trifluoroacetic acid and eluting the mixture with a gradient from 0% to 100% of 80% MeCN and 0.1% trifluoroacetic acid. The size of the separated products were confirmed by mass spectrometry.

- alteration of SPAN12 epitope by α-thrombin (thrombin receptor): did not prevent
Substance: SEQ ID NO:4: unrelated peptide having an amino acid content similar to BK analog SEQ ID NO:14 (FNQTQPERGDNNLTR)

Substance: SEQ ID NO:21: non-BK analog peptide derived from domain 3 of kininogen (LNAENNA) [reference compound]
- effect on γ-thrombin-induced aggregation tracing (Human platelets in PRP; peptide 1 mM): unable to alter
- protection of NAT12 / thrombin receptor from α-thrombin cleavage (α-thrombin): no protection
- cleavage product peak 2, share of non-treated NAT12 peak area (α-thrombin; 8 nM α-thrombin): 32%
- cleavage product peak 3, share of non-treated NAT12 peak area (α-thrombin; 8 nM α-thrombin): 54%
- reduction of NAT12 peak 1 area after α-thrombin (α-thrombin; 8 nM α-thrombin, one hour 37° C.): 86%

Substance: 4-MAP: four-branch multiple antigenic peptide of BK analog SEQ ID NO:20 on a lysine-β-alanine core (RPPG; also: four-branch MAP on lysine-beta-alanine core)
- effect on γ-thrombin-induced aggregation tracing (Human platelets in PRP; 0.05 mM): abolished
